Measurements as given in paper doi:10.1101/2021.12.16.472884.

Assays:
Assay in all cases: SEC
[1] = target: His6 tagged recombinant pNL4-3-derived IN R262A/R263A/D256N/D270N (HIV-1 (NL4-3))
[2] = target: His6 tagged recombinant pNL4-3-derived IN R262A/R263A/D256R (HIV-1 (NL4-3))
[3] = target: His6 tagged recombinant pNL4-3-derived IN R269A/K273A/D256N/D270N (HIV-1 (NL4-3))
[4] = target: His6 tagged recombinant pNL4-3-derived IN R269A/K273A/D256R (HIV-1 (NL4-3))

Substance: His6 tagged recombinant pNL4-3-derived IN R262A/R263A/D256N/D270N (enzyme)
- stoichiometry N [1]: 4

Substance: His6 tagged recombinant pNL4-3-derived IN R262A/R263A/D256R (enzyme)
- stoichiometry N [2]: 4

Substance: His6 tagged recombinant pNL4-3-derived IN R269A/K273A/D256N/D270N (enzyme)
- stoichiometry N [3]: 4

Substance: His6 tagged recombinant pNL4-3-derived IN R269A/K273A/D256R (enzyme)
- stoichiometry N [4]: 4
